In test [1] the target is S565 fragment (amino acids 1-565 of the S protein of SARS-CoV), myc-tagged (SARS-CoV strain Frankfurt 1, UniProt P59594 14-565). Kind of test: IgG ELISA on captured S565. (An ELISA detects its analyte on a solid surface through an enzyme-linked reagent.)
Test [2] concerns the target S318-510 fragment (amino acids 318-510 of the S protein of SARS-CoV strain Frankfurt 1) (SARS-CoV strain Frankfurt 1, UniProt P59594 318-510). Kind of test: IgG ELISA on captured S318-510.
For test [3], the target named is full length S protein of SARS-CoV expressed on HEK293T cells (SARS-CoV strain Frankfurt 1, UniProt P59594 14-1255). Kind of test: flow cytometry, IgG 10 µg/ml.
For test [4], the target named is spike protein of SARS-CoV as present in the SARS-CoV preparation (SARS-CoV strain Frankfurt 1, UniProt P59594 14-1255). Description: sandwich ELISA, detection with anti-spike rabbit sera IMG-542 and IMG-557.

B1: 03-006 (antibody, V domains shown)
VH: EVQLVESGGGLVQPGGSLRLSCAASGFTFSGYPMHWVRQAPGKGLEWVAVISYDGSNKYYADSVKGRFTISRDNSKNTLYLQMNSLRAEDTAVYYCAKDGSPRTPSFDYWGQGTLVTVSS
VL: DIQMTQSPHSLSASVGDRVTITCRASQGISNYLAWYQQKPGKVPKLLIYAASTLQSGVPSRFSGSGSGTDFTLTISSLQPEDVGVYYCQQRFRTPVTFGQGTKLEIKR
As to B1, the binding result in test [1], in test [2] and in test [3] was “binds” in each case.

B2: 03-013 (antibody, V domains shown)
VH: EVQLVESGGGLVQPGGSLRLSCAASGFTFSDHYMDWVRQAPGKGLEWVGRTRNKANSYTTEYAASVKGRFTISRDDSKNSLYLQMNSLKTEDTAVYYCAKGLTPLYFDYWGQGTLVTVSS
VL: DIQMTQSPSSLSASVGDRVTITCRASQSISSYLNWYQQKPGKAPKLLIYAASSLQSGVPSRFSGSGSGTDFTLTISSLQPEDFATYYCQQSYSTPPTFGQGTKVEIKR
With B2, the binding result in test [4], in test [1], in test [2] and in test [3] was “binds” each time.

B3: 03-014 (antibody, V domains shown)
VH: EVQLVESGGGLVQPGGSLRLSCAASGFTFSDHYMDWVRQAPGKGLEWVGRTRNKANSYTTEYAASVKGRFTISRDDSKNSLYLQMNSLKTEDTAVYYCARGISPFYFDYWGQGTLVTVSS
VL: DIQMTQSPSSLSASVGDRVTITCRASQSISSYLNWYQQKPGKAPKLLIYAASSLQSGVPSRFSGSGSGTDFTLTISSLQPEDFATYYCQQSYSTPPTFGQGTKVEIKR
In the case of B3, the binding result in test [1] and in test [2] was “binds” in each case.

B4: 03-002 (antibody, V domains shown)
VH: EVQLVESGGGLVKPGGSLRLSCAASGFTFSGYSMSWVRQAPGKGLEWVGRTRNKANSYTTEYAASVKGRFTISRDDSKNSLYLQMNSLKTEDTAVYYCARYYSRSLKAFDYWGQGTLVTVSS
VL: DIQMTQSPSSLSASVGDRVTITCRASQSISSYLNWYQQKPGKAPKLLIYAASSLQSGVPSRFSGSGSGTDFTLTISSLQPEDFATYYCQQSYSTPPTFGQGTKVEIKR
In the case of B4, the binding result in test [2] is recorded as “no binding”.

B5: 03-015 (antibody, V domains shown)
VH: EVQLVESGGGVVRPGGSLRLSCAASGFTFDDYGMSWVRQAPGKGLEWVSGINWNGGSTGYADSVKGRFTISRDNAKNSLYLQMNSLRAEDTAVYYCARGLSLRPWGQGTLVTVSS
VL: SSELTQDPAESVALGQTVRITCQGDSLRSYYASWYQQKPGQAPVLVIYGKNNRPSGIPDRFSGSSSGNTASLTITGAQAEDEADYYCNSRDSSGNHVVFGGGTKLTVLG
B5: the binding result in test [1] was “no binding”; in test [2] it was “no binding”; in test [3], “binds”.

B6: 03-009 (antibody, V domains shown)
VH: EVQLVESGGGVVQPGRSLRLSCAASGFTFSDYPMNWVRQAPGKGLEWVSSISGSGGSTYYADSVKGRFTISRDNSKNTLYLQMNSLRAEDTAVYYCAKGLFMVTTYAFDYWGQGTLVTVSS
VL: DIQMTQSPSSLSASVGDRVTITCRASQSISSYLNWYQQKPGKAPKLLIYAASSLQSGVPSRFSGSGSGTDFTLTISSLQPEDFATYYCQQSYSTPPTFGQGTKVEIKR
With B6, in test [2], the binding result is reported as “no binding”.

B7: 03-001 (antibody, V domains shown)
VH: EVQLVESGGGLVKPGGSLRLSCAASGFTFSGYSMNWVRQAPGKGLEWVSSISGGSTYYADSRKGRFTISRDNSKNTLYLQMNNLRAEDTAVYYCARHRFRHVFDYWGQGTLVTVSS
VL: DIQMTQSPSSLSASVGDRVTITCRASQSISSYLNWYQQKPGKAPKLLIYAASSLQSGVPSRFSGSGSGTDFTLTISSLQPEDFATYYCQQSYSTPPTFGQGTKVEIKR
As to B7, the binding result in test [2] was “no binding”.

The record behind these values is patent publication EP1644414B1 (Crucell Holland B.V., dated 2015).
